# B1: D. melanogaster Rhino chromodomain (19–85) (domain or fragment)
# chain: DHVEEYVVEKILGKRFVNGRPQVLVKWSGFPNENNTWEPLENVGNCMKLVSDFESEVFRLHRKAAAK
# Assays:
# [1] = target: Rhino chromodomain (23–85) (D. melanogaster) (UniProt Q7JXA8); assay: ITC
# crystal structure = target: the molecule itself; assay: crystal structure
# [2] = target: B1; assay: crystal structure
Molecule,Kd [1] [µM],other results
H3(1–15)K9me2 peptide (from UniProt P02299 2-16),28.4,–
H3(1–15)K9me3 peptide (from UniProt P02299 2-16),21.8,–
B1,–,binding result (crystal structure): binds
ARTKQTARKSTGGKA (trimethyl-lysine at 9 (K9me3)) [H3(1–15)K9me3 peptide],–,binding result [2]: binds

# Source: article PMC4117942 (Genes & Development, 2014)
